Source: publication PMC7327492

Assays:
[1] = target: YFP-FoxO3 H-C; experiment: co-IP; YFP-FoxO3 constructs transfected into HeLa cells, purified using YFP resin, PP2A-B56 binding determined by Western blotting
[2] = target: YFP-FoxO3 I-C; experiment: as above
[3] = target: YFP-FoxO3 L-C; experiment: as above
[4] = target: Recombinant B56α (UniProt Q15172); experiment: ITC; purified full-length recombinant B56α and synthetic ADAM17 peptides

Chain of PP2A-B56 (endogenous holoenzyme of HeLa cells) (Q15172 whole entry): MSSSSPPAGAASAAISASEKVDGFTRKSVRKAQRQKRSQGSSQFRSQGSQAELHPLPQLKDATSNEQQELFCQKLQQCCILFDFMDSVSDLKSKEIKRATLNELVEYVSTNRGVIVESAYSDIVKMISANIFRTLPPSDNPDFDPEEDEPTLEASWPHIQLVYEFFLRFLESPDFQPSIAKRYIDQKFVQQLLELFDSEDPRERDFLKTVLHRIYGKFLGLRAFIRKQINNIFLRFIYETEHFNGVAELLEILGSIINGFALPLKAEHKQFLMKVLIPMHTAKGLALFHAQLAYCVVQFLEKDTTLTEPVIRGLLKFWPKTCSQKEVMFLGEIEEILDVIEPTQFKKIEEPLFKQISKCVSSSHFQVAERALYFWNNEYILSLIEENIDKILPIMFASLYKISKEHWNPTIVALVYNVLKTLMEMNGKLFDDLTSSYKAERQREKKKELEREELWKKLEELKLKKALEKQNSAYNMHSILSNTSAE
Chain of PP2A-B56 (endogenous holoenzyme of HeLa cells) (P30153 whole entry): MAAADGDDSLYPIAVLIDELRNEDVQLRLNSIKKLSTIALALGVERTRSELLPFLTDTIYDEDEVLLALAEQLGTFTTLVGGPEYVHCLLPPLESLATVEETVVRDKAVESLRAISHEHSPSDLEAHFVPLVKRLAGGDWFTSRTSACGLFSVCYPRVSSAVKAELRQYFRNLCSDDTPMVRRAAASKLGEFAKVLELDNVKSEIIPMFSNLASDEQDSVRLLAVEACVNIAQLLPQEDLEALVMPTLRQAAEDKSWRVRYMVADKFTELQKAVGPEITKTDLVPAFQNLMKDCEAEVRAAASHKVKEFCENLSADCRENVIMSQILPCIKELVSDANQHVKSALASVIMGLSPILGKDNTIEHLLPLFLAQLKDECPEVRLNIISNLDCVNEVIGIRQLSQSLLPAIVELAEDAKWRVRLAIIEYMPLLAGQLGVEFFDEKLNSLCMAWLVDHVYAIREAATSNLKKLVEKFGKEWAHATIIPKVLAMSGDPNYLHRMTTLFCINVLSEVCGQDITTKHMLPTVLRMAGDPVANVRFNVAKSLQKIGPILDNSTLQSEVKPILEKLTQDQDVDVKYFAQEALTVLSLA
Chain of PP2A-B56 (endogenous holoenzyme of HeLa cells) (P67775 whole entry): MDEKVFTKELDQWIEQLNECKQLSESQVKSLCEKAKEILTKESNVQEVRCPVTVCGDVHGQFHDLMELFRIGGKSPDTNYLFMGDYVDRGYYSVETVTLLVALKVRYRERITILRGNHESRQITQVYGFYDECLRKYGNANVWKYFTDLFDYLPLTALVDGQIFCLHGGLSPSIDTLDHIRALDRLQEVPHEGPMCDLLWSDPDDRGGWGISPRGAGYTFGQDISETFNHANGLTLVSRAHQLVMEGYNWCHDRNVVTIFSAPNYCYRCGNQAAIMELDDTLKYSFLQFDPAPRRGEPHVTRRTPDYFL

| fold PP2A-B56 bound against wt FoxO3 [1] | fold PP2A-B56 bound against wt FoxO3 [2] | fold PP2A-B56 bound against wt FoxO3 [3] | Kd [4] | Substance |
| --- | --- | --- | --- | --- |
| 10 fold | 4 fold | 0.5 fold |  | PP2A-B56 (endogenous holoenzyme of HeLa cells) (from UniProt Q15172 1-486; P30153 1-589; P67775 1-309) (complex) |
|  |  |  | 900 nM | synthetic ADAM17 peptide engineered for optimal binding (LDTIQEEE) |
